Experimental data published in a protein production outcome set (Wang et al. 2014).
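Note: failed if final PepcDB status was selected cloned or expressed and not failed if soluble or beyond.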

Experiment: label from the status in PepcDB records
In the case of “MKQLTILGSTGSIGNSTLSVVRANPELFKVTALVAGRNVREMAQQCLEFSPRYAAMSDEHSAKSLRLLLAEQGSDTEVYSGETAACELAALDDVDQVMAAIVGIAGLPSTLAAIRAGKQVLLANKESLITCGKLFMDEVKRSRAQLLPIDSEHNAIFQSLPERIQRQLGYSSLNENGVSRIILTGSGGPFRETPLSQFSDVTPDQACAHPNWSMGRKISVDSATMMNKGLEYIEARWLFNASAEQIEVVLHPQSVIHSMVRYHDGSILAQMGTPDMRTPIAHAMAYPMRVSSGVAPLDFCKVGALTFTTPDYQRYPCLKLAIDACNAGQAATTALNAANEISVMAFLDSKIRFTDIEVINRTVVEGLLLSEPTSVEEVLVIDRKARDVAAQVIAKLNN”, the protein production was “not failed”.
For “MKQMSITLIFIMAFTIIIHAVETSSYSIRLAGVRLKKIAVALSVVGMVLLISRTSNLLQAFLIGGIVDEAKLDSSIDLEHIIRLVLLSASIGTLLAIILYPTLTKLFGYVIQNFETDGSFIRMMKTNNIQKLKYTKKYVRFPKLEMIHRLRIGGIPKRIMLINMFATAIYTAGVLSALYASFLNPDYATNASTASGLVNGFATILLTVLLDPRIALLTERALQSENGAESMSKMYGWLMISRLFGTLLAQLLFVPGAYWILWIIELIH”, the protein production was “failed”.
With “MKQNQQNKKSFEVQLTQLFLFTSLPLFFLLIGVMIYANISLYLILLTMLISSLVIVYSHSKLHQKSAYQFRSLSNLLDAMVQGDYSLRARISDGDEALNELVDSINSLSLRLNKQRIETTESQLLLTTVINHIDVAILALNENNELVLTNPAAKKLLQIPAEQQEFDLIESFSQFSQIAAMNSGNSQVMSLYFANQQGKFNVHLEEYRENGKPQKLVFITDVSTMLRSEERNAWQALVRVISHEINNSLSPIASISQSLRRLLARQEKLENHKEYLVEGLSIISQRSNSLTEFVNSYKQIASLPEPKKQPSSVLELVNKTVALYPDECIEVQNIDDITLVLDAVQFEQVLINLVKNAVEAVKSAGEAGKVAISGQVNGKVFSLSLADDGTGVSNLENLFVPFYSTKSKGSGIGLVLCRQIIEAHGGKITLTNRLGVSGCIATIELPL” the protein production was “failed”.
With “MKQPTLAVIMTCHNRRNTTLACLQALYQQKNHFDVYLTDDGSTDGTAEFIKAEYPDVKIFQGDGNLFWVGGMHLAFGEAIKNQYDYYLWLNDDTFLEADALEKLLQVHENLAVEGYGQSIVVGSTQDPITKQATYGGAVKSKKWYSNKFEFLEPTSDVQKCDAMYGNCVLIPHSVTLKVGNIDTAFIHSLGDLDYALRARNLGLEHHHHHH” the protein production was “failed”.
With “MKQSKIIVAGIGPGSEQDITPAVLAAVREADVVVGYKYYFRFIRDFVRPDAECIDTGMKRERARAEQAFEYAEQGKTVCVISSGDAGIYGMTPLIYEMKRERQSNVEIIALPGI” the protein production was “failed”.
In the case of “MKRDHHQFQGRLSNHGTSSSSSSISKDKMMMVKKEEDGGGNMDDELLAVLGYKVRSSEMAEVALKLEQLETMMSNVQEDGLSHLATDTVHYNPSELYSWLDNMLSELNPPPLPASSNGLDPVLPSPEICGFPASDYDLKVIPGNAIYQFPAIDSSSSSNNQNKRLKSCSSPDSMVTSTSTGTQIGGVIGTTVTTTTTTTTAAGESTRSVILVDSQENGVRLVHALMACAEAIQQNNLTLAEALVKQIGCLAVSQAGAMRKVATYFAEALARRIYRLSPPQNQIDHCLSDTLQMHFYETCPYLKFAHFTANQAILEAFEGKKRVHVIDFSMNQGLQWPALMQALALREGGPPTFRLTGIGPPAPDNSDHLHEVGCKLAQLAEAIHVEFEYRGFVANSLADLDASMLELRPSDTEAVAVNSVFELHKLLGRPGGIEKVLGVVKQIKPVIFTVVEQESNHNGPVFLDRFTESLHYYSTLFDSLEGVPNSQDKVMSEVYLGKQICNLVACEGPDRVERHETLSQWGNRFGSSGLAPAHLGSNAFKQASMLLSVFNSGQGYRVEESNGCLMLGWHTRPLITTSAWKLSTAAY”, the protein production was “failed”.
In the case of “MKRFQKQILLRRILQMDYKQIAKEVIEALGGRENVNSVAHCATRLRVMVKDENKINKEKAENIEKVQGAFFNSGQYQMIFGTGTVNKIYDEVVAQGLPTASKDEQKAEAAKQGNWFQRAIRSFGDVFVPLLPAIVATGLFMGIRGAINNDTVLALFGTTSKAFAATDFYTYTVVLTDTAFAFFPALICWSAFNVFGGSPLLGLVLGLMMVNNALPNAWDVVSGAAKPIYFFDFIPVVGYQNSVLPAFFVGLIGAKFEQWVRKWVPDVLDLLLRPLVVFAVMSALALFIIGPVFHTVESYVLAGTEWILALPFGLAGLVLGGIHQIIVVTGVHHVFNLLEANLISNTGKDPLNAIITAAMTAQAGATLAVGVKTKDSKLKALAFPASLSAVLGITEPAIFGVNLRFGKPFIMGLIAGAAGGWLASILNLAGTGFGVTIVPGTLLYLNGQVLKYVIMVLVTLALGFALTWIFGYKEEEVEAQTEVVAEDIASAGSAPVALQAETIAAPLKGEVVALENVNDPVFSSGAMGKGAAIKPSGNRVVAPFDGEVQIAFPTGHAYGLKSDKGAEVLIHIGIDTVSLDGKGFDAKVQANQRVKKGDVLATFDSSVITEAGLDDTTMVIVTNTADYEDVSLVATGSVAEGGDFIAVK”, the protein production was “failed”.
In the case of “MKRIILLAFLCTTTLVMAQRINHVQEAIANYDYEAALTLIAKEKPTIPLLLQKGKAQRGLGMNTEALSTYQEIIANDTANTRAYIEAAECCRSLAKYQQALKYYEQALDLNPENKYVRIQYIGLLLSLQKFQDALGESSLMTEKDSSAIALHLQAQSFEGMGELLPATGCYYNIQEKYPDDYLAAAKLAALNIAGSYFNEAIEATEKYRQTDTTNIAVNRQNALAYCLNKDYPTAIQRYEYLVSQGDSSFHTCYYLGISYYAEEKYYEAHDFLEAARKHDPENVNLLYYLGRACAKTSWKKLGVEYLEKALDLTIPKDSNMVRLYIGMTDCYKMAQMPKEQIESIRERYRKYDKQNHKLLYDMAFIYFYSLKDKKNTERCLEAFLKTRPKEDKEEEAKLNERGELVLGTKNYYNAAANWLKDIQSKQKIEDFFLGGNVPAQKPE”, the protein production was “failed”.
In the case of “MKRKLVTSALPYVNNFPHLGNLIQVLSADVFARFCRLKEYETLYICGTDEYGTATETKALEEKKSPEELCSFYHAIHAEIYNWFNIAFDYFGRTSTPQQTEITQGIFNDLDKNGYITEHTIEQLYCPSCKRFLADRYVLGTCPSCSYDGARGDQCEHCGKLLDPTDLKEPRCSSCGAAPEVRSTTHLYINLPKIVPEYEKWMPKTAEEGRWSNNALQMSKSWLRDGLQERAITRDLKWGIPVPKKGFEDKVFYVWFDAPIGYISITKCWADLAGKDWKAWWLDQNDVELFQFIGKDNIPFHTVIFPCSLIGSGKNWTKLFHMSGTEYLNYENGKFSKSKGVGVFGNDAKESGIPADMWRFYIFYNRPEKNDTQFTWKDFQERVNSELIGNLCNLVNRTATFIHRYYDGKIPQVDGAKSGREDIKSMVKSLREAASASFKKITELSDWAELRDSFHEAFALSSVANKAFQDGEPWKRRETDPEYAEALMSELCYLIKDILILIHPYMPQYADQAAGFFGQKIWSGNIFDGKAPQFNKPEGSFLSWKNLGEREGLKTVENPVIIFKTLDNKVIDAYRERYSGSQKDRKKSEKGCSACKDSGSSKSDAAASSAKPEVKLSPAELFSKKIALKTAKIISVERHPDADKLYIEKLDDGSGEERTILSGLVPFLKEDEILGKTVIIADNLKPRKMRGIESKGMLLAASWYDEEEKEHVELLQAPWAAPGTPVILEGDADISDPEAVKAFYAQKPAAIDADTFFAAPILIEDYIPKIEGKKLLVAGKEMKLEKVKTGEAG”, the protein production was “failed”.
In the case of “MKRKQESKGAGEKRQGAGGRGQGEKKQGKQGRQGRQGRQGEKSPVPSPQSPIPNPQFTTPNPDEWLQIGKIVSAQGLSGEVRVYPDSDFPERFEVPGTRWLLRPGQTEPQPIELLHGRYLENKNLYVLQLAGVENRSQSEELRGCMLFVPASDRPELGEDEYHVVDLIGMEVFLQASGDLVGAVVDVIPAGNDLLEVSLHEPVTSDKKPKTVLIPFVKAIAPVVDLQTRRIEITPPPGLLELGSGV”, the protein production was “failed”.
In the case of “MKRLLERSHALLTAPVGATPRVLALVAALLVVPTYVAPLWNLTMFAPQYGDGLRLDIYSYKLEGGNHGQDLKEINLLNHYIGMHDLAEEDFREFKWMPFVMGGLALVFLRAAVMGRVLDLLDSLVVFTWFGLFSLWSFGYKLYSYGHDLAPGAPVKVPPFMPPMIGSAQLANFEVYSYPGLGSYALFAVGLALAVALALGVRATLRRSAAAPLPRGGP”, the protein production was “failed”.
For “MKRLMFIGPSQCGKTSLTQSLRGEALHYKKTQAIEWSPMAIDTPGEYLENRCLYSALLTSACEADVIALVLNADAQWSPFSPGFTAPMNRPTIGLVTKADLAEPQRISLVAEWLTQAGAQQIFITSALNNSGLDAVLDFLNSKEPLCLTKLEHHHHHH”, the protein production was “not failed”.
With “MKRLSITVRLTLLFILLLSVAGAGIVWTLYNGLASELKWRDDTTLINRTAQIKQLLIDGVNPDTLPVYFNRMMDVSQDILIIHGDSINKIVNRTNVSDGMLNNIPASETISAAGIYRSIINDTEIDALRINIDEVSPSLTVTVAKLASARHNMLEQYKINSIIICIVAIVLCSVLSPLLIRTGLREIKKLSGVTEALNYNDSREPVEVSALPRELKPLGQALNKMHHALVKDFERLSQFADDLAHELRTPINALLGQNQVTLSQTRSIAEYQKTIAGNIEELENISRLTENILFLARADKNNVLVKLDSLSLNKEVENLLDYLEYLSDEKEICFKVECNQQIFADKILLQRMLSNLIVNAIRYSPEKSRIHITSFLDTNSYLNIDIASPGTKINEPEKLFRRFWRGDNSRHSVGQGLGLSLVKAIAELHGGSATYHYLNKHNVFRITLPQRN” the protein production was “failed”.
With “MKRLSLLAATAAFLLASPALAESPFWPVQPKNGPVAAELRGAWKSRGYGWIVQFGPDGPQLFHTAGGACYPDPRREPDPDGVLALWRAEGPGVISLTGDPVGTRYQFDRLPNLPTDCISAGGWTPDRIVAFAADTFAELYPRSAERKLDWPARKAKALTQVGPNATDDQLWLAMAGLLSGLDDPHVELHGMVQGARRDLEPGESPTLMRVRAADPSGDERGWLQAYREGILTGLLQGKGRQAANNRIFWGRVDDVGYLNVLTMGAFARNAAPDDPRPLDAVLDEALSAFVGAKAVVVDVSNNRGGYDIISRRIAARFTAQPRVAYAKVPVGAKAPPQVIKVEPSGAVGFTGPVYVVTSDITVSAGETFTLMMKALPNVTLVGGTTRGAFSDQLPKPLPNGWTLALPAELYRTADGRDLEGRGLAPTVPMAVFPDSDLMGGHAKALSSLFATIREGAAAGATR” the protein production was “failed”.
In the case of “MKRLTPYSWLILIIFSSCLTGNKVASTDKQIESLLSQMTLEEKIGMLHSNTMFSSTGVPRLGIPDLHYSDGPHGVRFEGVANGWESARWDNDACSYLPALSALASTWNRDLAQLYGEVLGAECKARGKHVSLAPGVNIHRSLLNGRNWEYFSEDPFFSGELAVPYIQGVQSQGVASCVKHFALNSQAYNQYKVSVEVDERTLHEIYLPAFEAAIQRGGAMAAMAAYNKVRGLWCTESPYLLDTLLRDELGFDGLVVSDWNAVHNTERTALCGMDVEMGTSIKENGKYAFNKYYLADPLLKKVRNGEIPEEAVNKKVRNILKLMIRLDLIGQAPYDTTGMAAKLAIPAHTKAAREIAEESLVLLKNSKDMLPLDPAQYKNVAVIGANATEVFAAGGGSTKLKAKYEVTPLEGLQNLLDGKARIEYAPGYQLSKKAYKVGHWFTNEFDKSDEELYKKAINTAAQAELVIYIGGTSHEHGSDCEGYDKPNLKLPYQQDRLLKGILEVNPNTVVVLISGGPVEIGEWYNDATALLHGSFLGMEGGNALARTLFGEVNPSGKLTTTWCKRLEDMPDHVFGEYPGINDTVRFKEGLMVGYRYFDTYRVVPLFEFGYGLSYTTFTYSNIKMKPVWKDSDTEFAVSFTVTNTGKRYGQEIAQLYLHQNKCSVERPFKELKGFTKVGLKPGESKQVTIKLPRRALQYYDTESKRWKDEPGMFTVLIGASSRDIKLQKDFELKK”, the protein production was “failed”.
For “MKRMLAWLYAPLVFAGFIGAGVWWMSAGPASASGLLGVFGAALGVSFLAEWCLPYEPGWNRSQGDRLRDSLHALVNESLNALGLLALPGLVALLAHDGLWPQGWPLWGQLLLAIVIADCGITLAHYASHRLAWLWRLHAVHHSVQRMYGFNGLLKHPLHQLIEASAGLLPLVLLGIPLPVAQLLALAIAVQLLLQHSNVDMRLGPLRWIFAWAPVHRFHHMKYGRAGDVNFGLFFNLWDWLLGTAFYRDDYCMRQGDLGIGSRADYPVDYWPQLLEPFKAQRYGAEPVVPEQLRRRVRPASEA”, the protein production was “failed”.
